Experiment [1] deals with T1, Claudin 6 (human) (human, UniProt P56747 1-220).
T1 construct: Expressed on transfected HEK-293T cells or naturally on PA-1 cells for flow cytometry; For the Octet KD values it was the intact protein embedded in virus-like particles (lipoparticles); also called hsCLDN6; CLDN6
T1 chain: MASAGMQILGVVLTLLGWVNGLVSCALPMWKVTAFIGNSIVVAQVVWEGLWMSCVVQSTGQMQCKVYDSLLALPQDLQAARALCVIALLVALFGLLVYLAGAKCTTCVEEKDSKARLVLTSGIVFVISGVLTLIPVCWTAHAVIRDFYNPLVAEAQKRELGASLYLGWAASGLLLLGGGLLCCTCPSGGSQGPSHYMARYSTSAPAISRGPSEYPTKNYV
Briefly: flow cytometry, HEK-293T cells transfected with plasmids for the indicated proteins; pUC = empty vector control. In general terms: A flow cytometer gives signals particle by particle.

Experiment [2] has as its target T1, Claudin 6 (human). Nature of the experiment: binding assay of the 13th table, method not described.
Experiment [3] concerns the target T1, Claudin 6 (human). Nature of the experiment: flow cytometry, 66 nM MAb on HEK-293T cells expressing claudin6. The protocol: Expression and Binding of claudin6 MAbs. Claudin 6 MAbs produced using their natural light chain, or produced using a different light chain. Yield represents the preparation of the purified MAb and ug of protein resulting from the preparation. Binding represents 66 nM of the indicated MAb binding to HEK-293T cells expressing the target claudin6. The Controls represents the same MAbs staining HEK-293T cells not transfectedwith claudin6. Staining was detected by flow cytometry (geometric mean fluorescence). N/A, not available.

The target in a further experiment is T2, Claudin 3 (UniProt O15551 1-220).
T2 construct: also called CLDN3
T2 sequence (looked up): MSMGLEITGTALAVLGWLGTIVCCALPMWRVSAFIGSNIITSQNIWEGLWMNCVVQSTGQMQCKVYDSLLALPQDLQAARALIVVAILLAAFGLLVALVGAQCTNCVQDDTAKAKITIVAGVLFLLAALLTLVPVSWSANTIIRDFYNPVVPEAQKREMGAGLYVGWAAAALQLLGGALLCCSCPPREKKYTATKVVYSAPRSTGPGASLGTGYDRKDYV
Nature of the experiment: flow cytometry, HEK-293T cells transiently transfected with the indicated claudin; pUC19 = empty vector control. The protocol:
(§1) FIG. 2 illustrates the results of a binding assay showing that Claudin 6 MAbs bind to human Claudin 6 preferentially over other Claudin proteins. Human embryonic kidney 293T (HEK-293T) cells were transiently transfected with DNA for the indicated Claudin protein or empty vector along with GFP (pUC) for 22 hours.

Another experiment has as its target T3, Claudin 4 (UniProt O14493 1-209).
T3 construct: also called CLDN4
T3 sequence (looked up): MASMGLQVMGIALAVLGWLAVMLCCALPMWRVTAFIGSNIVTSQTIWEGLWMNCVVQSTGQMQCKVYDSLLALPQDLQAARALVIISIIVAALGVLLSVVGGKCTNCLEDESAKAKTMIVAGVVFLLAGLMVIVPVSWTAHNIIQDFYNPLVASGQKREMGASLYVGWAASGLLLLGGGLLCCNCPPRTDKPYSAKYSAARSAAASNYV
Described as above. The protocol: as §1

The target in another experiment is T4, Claudin 9 (UniProt O95484 1-217).
T4 construct: Octet KD values: intact claudin protein embedded in virus-like particles (lipoparticles); also called CLDN9
T4 sequence (looked up): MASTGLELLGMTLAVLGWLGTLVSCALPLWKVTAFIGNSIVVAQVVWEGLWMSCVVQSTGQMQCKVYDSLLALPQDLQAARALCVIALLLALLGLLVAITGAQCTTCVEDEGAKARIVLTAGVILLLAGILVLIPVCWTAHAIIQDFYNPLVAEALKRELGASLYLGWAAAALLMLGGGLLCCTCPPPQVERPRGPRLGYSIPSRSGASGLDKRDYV
Nature of the experiment: biosensor (Forte Octet), intact claudin in virus-like particles (lipoparticles). How it is done:
Affinity of various antibodies against CLDN6 as compared to CLDN9, CLDN3, and CLDN4 was measured using a biosensor. Biosensor affinity measurement of the various antibodies against the proteins was determined using a Forte Octet, which was used for biosensor measurements, using intact claudin proteins embedded in virus-like particles (lipoparticles). The KD for different antibodies is shown below.
(In general: In BLI a coated tip is dipped into the sample, and binding shifts an interference pattern.)

A value given as a limit tells only on which side of the number the result lay.

B1: IM271 (antibody, V domains shown)
VH: EVQLLESGGGLVQPGGSLRLSCAASGFTFSSYAMSWVRQAPGKGLEWVAGISSSGRYTGYADSVKGRFTISRDNSKNTLYLQMNSLRAEDTAVYYCAKSVGNGNSWSGYIATSIDAWGQGTLVTVSS
VL: SYELTQPPSVSVSPGQTARITCSGGSGSYGWYQQKPGQAPVLVIYGTNKRPSGIPERFSGSSSGTTVTLTISGVQAEDEADYYCGSADSSTNAGIFGGGTKLTVL
In general, EC50 (read off the curve) refers to the concentration that produces a half-maximal response. A lower EC50 (read off the curve) goes with a more potent agent. In general, EC50 refers to the concentration at which the effect is half-maximal. In the case of B1, in the experiment with Claudin 6 (human) [1], the “EC50 (read off the curve)” value was approximately 0.4 µg/mL. The molecule further gave an EC50 in the experiment with Claudin 6 (human) [2] of less than 4 nM. Besides, the “Binding (geometric mean fluorescence)” value in the experiment with Claudin 6 (human) [3] was 63000 geometric mean fluorescence.

B2: IM136 (antibody, V domains shown)
VH: AVTLDESGGGLQTPGGVLSLVCKASGFSFSSYDMGWVRQAPGKGLEWVASIYSSASSTYYAPAVKGRATITRDNGQSTVRLQLNNLRAEDTGTYYCAKAAGRTYRGWATYIADSIDAWGHGTEVIVSS
VL: ALTQPSSVSANPGESVEITCSGDSSWYGYGWYQQKSPGSAPVTLIYESGKRPSDIPSRFSGSTSGSTATLTITGVQADDEAVYYCGSADSNSIGIFGAGTTLTVL
notes: Detected with anti-human IgG Fc secondary
A word on the Kd: it is the equilibrium constant for the complex coming apart. Turning to B2, the binding result with Claudin 3 and with Claudin 4 was “no binding (tested: log [mAb] about -7.2 M)” in each case. Besides, in the experiment with Claudin 9, binding was put at a Kd of 386 nM.

The values are drawn from US20220127355A1 (INTEGRAL MOLECULAR, published 2022).
